# Read-outs that look alike come from different tables or passages of the source.
# How the values were obtained:
# [1] = molecular target: FLAG tagged human Ang2 (Alexis Biochemicals) (human) (UniProt O15123); experiment: AlphaScreen competition, periplasmic extract, FLAG-hAng2 / biotin-hTie2/Fc
# [2] = molecular target: N-terminally FLAG-tagged mouse Ang2 (HEK293T conditioned medium) (mouse) (UniProt O35608); experiment: competition ELISA, periplasmic extract, FLAG-mAng2 on mTie2/Fc
# [3] = molecular target: FLAG tagged human Ang2 (Alexis Biochemicals) (human) (UniProt O15123); experiment: competition ELISA, periplasmic extract, FLAG-hAng2 on hTie2/Fc
# [4] = molecular target: FLAG tagged human Ang2 (Alexis Biochemicals) (human) (UniProt O15123); experiment: competition ELISA, FLAG-hAng2 (0.02 nM) on coated hTie2/Fc
# [5] = molecular target: FLAG-tagged recombinant human Ang1 (Alexis Biochemicals) (human) (UniProt Q15389); experiment: competition ELISA, periplasmic extract, FLAG-hAng1 on hTie2/Fc
# [6] = molecular target: FLAG tagged human Ang2 (Alexis Biochemicals) (human) (UniProt O15123); experiment: competition ELISA, FLAG-hAng2 (0.02 nM) on coated hTie2/Fc; remark: listed apart in the source
# Sequence of N-terminally FLAG-tagged mouse Ang2 (HEK293T conditioned medium) (mouse) (O35608 19-496 limits assumed): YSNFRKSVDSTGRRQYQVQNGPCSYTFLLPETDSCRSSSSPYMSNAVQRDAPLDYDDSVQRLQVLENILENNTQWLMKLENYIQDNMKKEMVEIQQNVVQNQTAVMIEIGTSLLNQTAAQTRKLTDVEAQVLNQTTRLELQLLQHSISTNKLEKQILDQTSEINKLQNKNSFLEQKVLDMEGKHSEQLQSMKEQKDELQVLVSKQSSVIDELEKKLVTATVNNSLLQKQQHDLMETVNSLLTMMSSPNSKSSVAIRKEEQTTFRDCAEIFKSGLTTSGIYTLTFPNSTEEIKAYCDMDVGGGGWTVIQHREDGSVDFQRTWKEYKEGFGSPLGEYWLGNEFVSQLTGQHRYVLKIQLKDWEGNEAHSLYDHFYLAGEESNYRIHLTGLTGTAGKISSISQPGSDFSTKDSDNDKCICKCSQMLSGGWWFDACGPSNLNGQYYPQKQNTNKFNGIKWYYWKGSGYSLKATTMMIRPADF
# Sequence of FLAG-tagged recombinant human Ang1 (Alexis Biochemicals) (human) (Q15389 20-498 limits assumed): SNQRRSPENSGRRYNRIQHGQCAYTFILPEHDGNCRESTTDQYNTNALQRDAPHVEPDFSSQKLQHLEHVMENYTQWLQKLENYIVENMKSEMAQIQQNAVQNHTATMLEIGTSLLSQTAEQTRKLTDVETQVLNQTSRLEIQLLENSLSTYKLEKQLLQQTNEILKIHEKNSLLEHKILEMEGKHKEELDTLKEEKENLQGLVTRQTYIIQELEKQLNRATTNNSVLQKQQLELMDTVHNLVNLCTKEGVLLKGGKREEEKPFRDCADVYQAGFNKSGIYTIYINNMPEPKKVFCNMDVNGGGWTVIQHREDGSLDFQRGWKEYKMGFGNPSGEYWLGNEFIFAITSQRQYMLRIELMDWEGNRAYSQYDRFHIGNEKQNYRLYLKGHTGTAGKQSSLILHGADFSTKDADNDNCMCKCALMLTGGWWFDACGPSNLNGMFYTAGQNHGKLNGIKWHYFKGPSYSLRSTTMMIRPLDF
# Sequence of FLAG tagged human Ang2 (Alexis Biochemicals) (human) (O15123 19-496): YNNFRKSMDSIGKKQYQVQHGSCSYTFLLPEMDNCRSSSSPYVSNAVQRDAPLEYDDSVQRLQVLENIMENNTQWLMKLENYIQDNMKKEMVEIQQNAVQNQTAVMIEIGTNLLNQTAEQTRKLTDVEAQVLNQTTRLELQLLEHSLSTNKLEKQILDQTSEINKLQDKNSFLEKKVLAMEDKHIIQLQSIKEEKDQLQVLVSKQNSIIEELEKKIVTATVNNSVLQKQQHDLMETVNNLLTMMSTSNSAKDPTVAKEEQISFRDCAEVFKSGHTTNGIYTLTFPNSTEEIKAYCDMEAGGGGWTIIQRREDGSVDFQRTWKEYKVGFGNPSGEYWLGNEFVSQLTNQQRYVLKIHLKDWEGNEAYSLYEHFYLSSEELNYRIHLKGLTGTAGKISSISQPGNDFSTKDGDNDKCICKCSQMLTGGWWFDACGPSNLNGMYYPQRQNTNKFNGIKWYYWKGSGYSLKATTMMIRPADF
Binder,% inh [1] [%],% inh [2] [%],% inh [3] [%],IC50 [4] [nM],% inh [5] [%],IC50 [6] [nM]
"VHH 29B08 (VHH, not shown: small tags and cut ends) VHH: EVQLVESGGGVVQAGDSVRLSCAASGPTFRSYTMAWFRQTPGKERDIVAAISSSLGRTYYADSVKGRFQILRDNAKETVWLQMNSLKPEDTAVYICAASRSLNLAYTTKPYDYWGQGTQVTVSS",60,63,112,–,–,–
"VHH 25F01 (VHH, not shown: small tags and cut ends) VHH: EVQLVESGGGLVQAGGSLRLSCAVSGLPFDDYVIGWFRQAPGKEREGVSCISSSDGSTYYADSVKGRFTISSDNAKNTVYLQMNSLKPEDTAAYYCAAGGPRINIATMTCSHDEYEYDYWGQGTQVTVSS",67,–,85,6.5,14,–
"VHH 25D08 (VHH, not shown: small tags and cut ends) VHH: EVQLVESGGGLVQAGGSLRLSCAASGFTFDDYAIGWFRQAPGKDLEGVSCISSSDGSTYYADSVKGRFTISSDNAKNTVYLQMNSLKPEDTAVYYCAAVNGLGPFSVPVPVYDFWGQGTQVTVSS",78,6,94,–,10,–
"VHH 12A08 (VHH, not shown: small tags and cut ends) VHH: EVQLVESGRGLVQAGGSLRLSCAASGSIFSINAMLWYRQAPGKQRELVAAITSGGSTNYADSVKGRFTISRDNAKNTVYLQMNSLKPEDTAVYYCAADSDYSSDYYYWGQGTQVTVSS",98,2,0,–,–,–
"VHH 32H10 (VHH, not shown: small tags and cut ends) VHH: EVQLVESGGGLVQAGGSLRLSCAASGFDFEDYDMGWFRQAPGKEREGVSYISSSDGSTYYTDSVKGRFTISSDNAKNTVYLQMNSLIPEDTAVYYCAARPWTRRVYGSSWLARSLDEYEYDYWGQGTQVTVSS",55,–,112,–,17,4
"VHH 25G04 (VHH, not shown: small tags and cut ends) VHH: EVQLVESGGGLVQPGGSLRLSCAASGFTFGSYDMSWVRQAPGKGPEWVSAINSRGGSTYYADSVKGRFTISRDNAKNTLYLQMNSLKPEDTAVYYCATDPYSLSYYGYPLYDYWGQGTQVTVSS",90,9,87,–,–,–

# Reference: patent publication US20230203146A1
